Consider one substance from article PMC7718890, “High-throughput screening to discover inhibitors of the CarD·RNA polymerase protein–protein interaction in Mycobacterium tuberculosis” (Scientific Reports, 2020).

The target of the assay is Mycobacterium tuberculosis RNA polymerase, wild type (Mycobacterium tuberculosis) (UniProt P9WGY9). The experiment in a line: FP.

Take CarD T24C labelled with BODIPY-FL: the Kd (in general, a measure of binding affinity in units of concentration) was determined as 56 nM.
